# Data from patent US20250027090, “MIRROR-IMAGE SELECTION OF L-NUCLEIC ACID APTAMERS” (Tsinghua University, published 2025).
# Target: thrombin (native human beta-thrombin) (Homo sapiens, UniProt P00734;P00734 P00734:328-363,P00734:364-622)
# Assay: ITC; physiological buffer pH 7.4, 25 C
binder,measurement,value
D-6 aptamer (ssDNA) DNA: CGGATCCAGTTACGGACTGAACAGAAGGGTGGTGTGGTTGGACTGTTCATTCAGTAAGCTTCGG,Kd,27 nM
